The target in one assay is WIPI2 (endogenous, HeLa). Description: GFP-TRAP pull-down, quantified immunoblot. Particulars: HeLa cells starved for 1 hr; n = 3; parent: est. 0.10; read off a plot. A general note: A western blot detects proteins with antibodies after separation by electrophoresis.
The target of assay [1] is RAB11A (endogenous, HeLa) (UniProt P62491). Description: GFP-TRAP pull-down, quantified immunoblot. Particulars: HeLa cells starved for 2 hr; n = 5; parent: est. 1.0; read off a plot.
Assay [2] concerns the target T1, recombinant human HIS-RAB11A, P62491.
T1 chain: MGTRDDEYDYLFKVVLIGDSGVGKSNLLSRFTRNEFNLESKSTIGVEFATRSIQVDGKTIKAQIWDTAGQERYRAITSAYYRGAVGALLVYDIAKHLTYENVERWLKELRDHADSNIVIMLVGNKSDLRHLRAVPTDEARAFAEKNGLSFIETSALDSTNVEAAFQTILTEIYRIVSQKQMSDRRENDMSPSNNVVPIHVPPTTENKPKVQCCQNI
Description: liposome sedimentation assay. The settings on record: chain shown with the change; in vitro; RAB11A-containing liposomes; n = 4; parent: est. 100; read off a plot.

Take GFP-RAB11A (from UniProt P62491) Q70L: in the assay with WIPI2 (endogenous, HeLa), the response came out at 0.15 au.
The same measure, in the same setting: in the case of GFP-RAB11A (from UniProt P62491) S25N it was 0.045 au.
For the molecule GFP-WIPI2 L115A; E116T, the response in assay [1] stood at 0.42 au.
The same measure, in the same setting: in the case of GFP-WIPI2 Y120F; I121E it was 0.1 au.

B1: WIPI2-FLAG WT R224T; R225T (protein)
chain: MNLASQSGEAGAGQLLFANFNQDNTSLAVGSKSGYKFFSLSSVDKLEQIYECTDTEDVCIVERLFSSSLVAIVSLKAPRKLKVCHFKKGTEICNYSYSNTILAVKLNRQRLIVCLEESLYIHNIRDMKVLHTIRETPPNPAGLCALSINNDNCYLAYPGSATIGEVQVFDTINLRAANMIPAHDSPLAALAFDASGTKLATASEKGTVIRVFSIPEGQKLFEFTTGVKRCVSICSLAFSMDGMFLSASSNTETVHIFKLETVKEKPPEEPTTWTGYFGKVLMASTSYLPSQVTEMFNQGRAFATVRLPFCGHKNICSLATIQKIPRLLVGAADGYLYMYNLDPQEGGECALMKQHRLDGSLETTNEILDSASHDCPLVTQTYGAAAGKGTYVPSSPTRLAYTDDLGAVGGACLEDEASALRLDEDSEHPPMILRTD
For B1, the percent of parent in assay [2] was 92 % WT.

B2: WIPI2-FLAG WT L115A; E116T (protein)
chain: MNLASQSGEAGAGQLLFANFNQDNTSLAVGSKSGYKFFSLSSVDKLEQIYECTDTEDVCIVERLFSSSLVAIVSLKAPRKLKVCHFKKGTEICNYSYSNTILAVKLNRQRLIVCATESLYIHNIRDMKVLHTIRETPPNPAGLCALSINNDNCYLAYPGSATIGEVQVFDTINLRAANMIPAHDSPLAALAFDASGTKLATASEKGTVIRVFSIPEGQKLFEFRRGVKRCVSICSLAFSMDGMFLSASSNTETVHIFKLETVKEKPPEEPTTWTGYFGKVLMASTSYLPSQVTEMFNQGRAFATVRLPFCGHKNICSLATIQKIPRLLVGAADGYLYMYNLDPQEGGECALMKQHRLDGSLETTNEILDSASHDCPLVTQTYGAAAGKGTYVPSSPTRLAYTDDLGAVGGACLEDEASALRLDEDSEHPPMILRTD
Turning to B2, in assay [2], the percent of parent came to 43 % WT.

B3: WIPI2-FLAG WT Y120F; I121E (protein)
chain: MNLASQSGEAGAGQLLFANFNQDNTSLAVGSKSGYKFFSLSSVDKLEQIYECTDTEDVCIVERLFSSSLVAIVSLKAPRKLKVCHFKKGTEICNYSYSNTILAVKLNRQRLIVCLEESLFEHNIRDMKVLHTIRETPPNPAGLCALSINNDNCYLAYPGSATIGEVQVFDTINLRAANMIPAHDSPLAALAFDASGTKLATASEKGTVIRVFSIPEGQKLFEFRRGVKRCVSICSLAFSMDGMFLSASSNTETVHIFKLETVKEKPPEEPTTWTGYFGKVLMASTSYLPSQVTEMFNQGRAFATVRLPFCGHKNICSLATIQKIPRLLVGAADGYLYMYNLDPQEGGECALMKQHRLDGSLETTNEILDSASHDCPLVTQTYGAAAGKGTYVPSSPTRLAYTDDLGAVGGACLEDEASALRLDEDSEHPPMILRTD
As for B3, the percent of parent in assay [2] was determined as 38 % WT.

Values taken from article PMC5896254.
